Data set [1] has as its target Presenilin-1 (UniProt P49768). Nature of the data set: STED microscopy of KG1a-DLK1-GFP cells, 1864 condensates over 10 images.
Data set [2] concerns the target TGFBR1 (UniProt P36897). Nature of the data set: STED microscopy of KG1a-DLK1-GFP cells, 3691 condensates over 10 images.
In data set [3] the test system is DLK1 extracellular domain (ECD), soluble, exogenously added.

UniProt P36897, sequence (P36897 34-503 limits assumed): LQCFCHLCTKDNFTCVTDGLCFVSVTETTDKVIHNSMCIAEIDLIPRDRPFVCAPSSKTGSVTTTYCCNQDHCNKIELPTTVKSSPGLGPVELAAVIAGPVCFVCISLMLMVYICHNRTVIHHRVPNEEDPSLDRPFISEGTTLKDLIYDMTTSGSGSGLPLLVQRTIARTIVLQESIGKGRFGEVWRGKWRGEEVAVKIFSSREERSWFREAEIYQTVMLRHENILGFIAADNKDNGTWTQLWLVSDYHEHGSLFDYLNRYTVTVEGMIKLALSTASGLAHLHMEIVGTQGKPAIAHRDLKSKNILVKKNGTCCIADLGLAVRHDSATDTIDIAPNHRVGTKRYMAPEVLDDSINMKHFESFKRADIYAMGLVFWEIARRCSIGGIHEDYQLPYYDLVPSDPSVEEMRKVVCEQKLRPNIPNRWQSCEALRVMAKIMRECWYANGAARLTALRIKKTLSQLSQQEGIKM

Take “full-length DLK1 isoform with a C-terminal fusion to GFP, expressed in KG1a cells (from UniProt P80370 24-383)”: in data set [1], the percent of DLK1 in the PM that overlaps with PSEN1 (co-localization) worked out at 80% and the percent of PSEN1 that overlaps with DLK1 (co-localization) came to 75%. In data set [2], this substance came in with a percent of DLK1 in the PM that overlaps with TGFBR1 (co-localization) of 75% and a percent of TGFBR1 that overlaps with DLK1 (co-localization) of 75%.

In the case of Presenilin-1, the “Notch receptor cleavage, western blot of Notch1 cleaved at Valine 1744 (FIG. 14B)” value in data set [3] is recorded as “reduces Notch receptor cleavage”.
